This note sets out measurements from US20170204158A1 (Regeneron, published 2017).

The target of assay [1] is T1, human IL-33 (R&D Systems, # 3625-IL-010/CF) (human, UniProt O95760 112-270, biotinylated in the blocking ELISA of Example 3 (sites not given)).
T1 construct: Commercial protein; also called hIL-33; biot-hIL-33
T1 sequence (looked up): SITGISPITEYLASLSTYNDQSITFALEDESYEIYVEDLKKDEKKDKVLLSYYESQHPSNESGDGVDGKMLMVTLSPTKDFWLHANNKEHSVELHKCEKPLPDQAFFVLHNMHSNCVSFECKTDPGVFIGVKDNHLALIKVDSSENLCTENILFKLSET
Description: competition ELISA; antagonist pre-mixed with 20 pM biotin-hIL-33, binding to plate-coated human ST2-Fc. The method, then:
The ability of exemplary IL-33 antagonists of the invention to block human IL-33 (hIL-33) binding to the human ST2 receptor was measured using a competition sandwich ELISA. A portion of human ST2 protein ecto domain that was expressed with a C-terminal mouse Fc tag (SEQ ID NO:2) was coated at a concentration of 1 μg/mL in PBS buffer on a 96-well microtiter plate overnight at 4° C. […] Biotinylated hIL-33 protein (R&D systems, #3625-IL/CF) (biot-hIL-33) was added to achieve a constant final concentration of 20 pM to serial dilutions of IL-33 antagonists ranging from 0 to 100 nM. The mixture was incubated for 1 hour at room temperature (RT) before transfer to the hST2-hFc coated microtiter plates. After incubation for 1 hour at RT, the wells were then washed, and plate-bound biot-hIL-33 was detected with HRP-conjugated streptavidin (Thermo Scientific, # N200). All samples were developed with a TMB solution (BD biosciences, # 51-2607KC) to produce a colorimetric reaction and then quenched by acidification with 1M sulfuric acid before measuring absorbance at 450 nm on a Victor X5 plate reader (PerkinElmer). Data analysis was performed using a sigmoidal dose-response model within Prism™ software. […] Maximum blocking values represent the ability of the antagonists to block IL-33 binding relative to baseline. The absorbance measured at the constant amount of hIL-33 on the dose curve was defined as 0% blocking and the absorbance with no added IL-33 was defined as 100% blocking. The absorbance values of the wells containing the highest concentration tested for each antagonist were used to determine the maximum blocking percent.
(An ELISA detects its analyte on a solid surface through an enzyme-linked reagent.)

Assay [2] addresses T1, human IL-33 (R&D Systems, # …). Description: cell-based or functional assay.
In assay [3] the target is T2, monkey IL-33 expressed with C-terminal hexahistidine tag (MfIL-33-6His) (cynomolgus monkey (M. fascicularis)).
T2 chain: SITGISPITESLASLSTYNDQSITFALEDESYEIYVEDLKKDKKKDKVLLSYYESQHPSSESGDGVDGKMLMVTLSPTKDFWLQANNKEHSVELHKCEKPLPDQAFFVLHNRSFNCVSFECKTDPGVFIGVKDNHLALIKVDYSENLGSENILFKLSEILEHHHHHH
Description: cell-based or functional assay.

In assay [4] the target is T3, mouse IL-33 (R&D Systems, # 3626-ML-010/CF) (mouse, UniProt Q8BVZ5 109-266).
T3 construct: Commercial protein; also called mIL-33; mIL33
T3 sequence (looked up): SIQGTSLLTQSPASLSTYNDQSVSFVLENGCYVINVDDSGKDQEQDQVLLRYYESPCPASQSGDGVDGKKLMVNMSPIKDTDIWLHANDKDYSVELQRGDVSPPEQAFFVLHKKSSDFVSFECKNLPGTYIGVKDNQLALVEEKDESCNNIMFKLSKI
As to the kind of experiment: SPR (Biacore T-200), 37 C; Fc fusion captured by anti-Fc antibody, mouse IL-33 injected. The method, then: (§1) The Biacore sensor surface was first derivatized by amine coupling a polyclonal rabbit anti-mouse antibody (GE, # BR-1008-38) or with a monoclonal mouse anti-human Fc antibody (GE, # BR-1008-39) to capture IL-33 Trap and receptor proteins with a C-terminal mouse IgG2a Fc tag or a C-terminal human IgG1 Fc tag, respectively. Kinetic experiments were carried out in 0.01 M HEPES pH 7.4, 0.15 M NaCl, 3 mM EDTA, and 0.005% v/v Surfactant Tween-20 (HBST running buffer). Different concentrations of human IL-33, mouse IL-33 or MfIL-33-6His prepared in HBST running buffer (ranging from 60 nM to 27.4 pM, 3-fold dilutions, for Trap proteins and ranging from 60 nM to 0.25 nM, 3-fold dilutions, for ST2 receptor proteins) were injected over the captured IL-33 Trap and receptor protein surfaces at a flow rate of 50 μL/minute. Association of different IL-33 proteins to the different capture surfaces was monitored for 7 minutes for Trap proteins or 4 minutes for ST2 receptor proteins and their dissociation in HBST running buffer was monitored for 14 minutes for Trap proteins or 8 minutes for ST2 receptor proteins. Kinetic association (ka) and dissociation (kd) rate constants were determined by fitting the real-time binding sensorgrams to a 1:1 binding model using Scrubber 2.0c curve-fitting software. Binding dissociation equilibrium constants (KD) and dissociative half-lives (t½) were calculated from the kinetic rate constants as: […]

For assay [5], the target named is T3, mouse IL-33 (R&D Systems, # …). As to the kind of experiment: SPR (Biacore T-200), 25 C; Fc fusion captured by anti-Fc antibody, mouse IL-33 injected. On the procedure:
as §1
(In general: SPR reads the build-up and loss of mass on a sensor chip optically.)

B1: hST2-hIL1RAcP-mFc (Fc fusion)
chain: KFSKQSWGLENEALIVRCPRQGKPSYTVDWYYSQTNKSIPTQERNRVFASGQLLKFLPAAVADSGIYTCIVRSPTFNRTGYANVTIYKKQSDCNVPDYLMYSTVSGSEKNSKIYCPTIDLYNWTAPLEWFKNCQALQGSRYRAHKSFLVIDNVMTEDAGDYTCKFIHNENGANYSVTATRSFTVKDEQGFSLFPVIGAPAQNEIKEVEIGKNANLTCSACFGKGTQFLAAVLWQLNGTKITDFGEPRIQQEEGQNQSFSNGLACLDMVLRIADVKEEDLLLQYDCLALNLHGLRRHTVRLSRKNPIDHHSSERCDDWGLDTMRQIQVFEDEPARIKCPLFEHFLKFNYSTAHSAGLTLIWYWTRQDRDLEEPINFRLPENRISKEKDVLWFRPTLLNDTGNYTCMLRNTTYCSKVAFPLEVVQKDSCFNSPMKLPVHKLYIEYGIQRITCPNVDGYFPSSVKPTITWYMGCYKIQNFNNVIPEGMNLSFLIALISNNGNYTCVVTYPENGRTFHLTRTLTVKVVGSPKNAVPPVIHSPNDHVVYEKEPGEELLIPCTVYFSFLMDSRNEVWWTIDGKKPDDITIDVTINESISHSRTEDETRTQILSIKKVTSEDLKRSYVCHARSAKGEVAKAAKVKQKVPAPRYTVESGEPRGPTIKPCPPCKCPAPNLLGGPSVFIFPPKIKDVLMISLSPIVTCVVVDVSEDDPDVQISWFVNNVEVHTAQTQTHREDYNSTLRVVSALPIQHQDWMSGKEFKCKVNNKDLPAPIERTISKPKGSVRAPQVYVLPPPEEEMTKKQVTLTCMVTDFMPEDIYVEWTNNGKTELNYKNTEPVLDSDGSYFMYSKLRVEKKNWVERNSYSCSVVHEGLHNHHTTKSFSRTPGK
notes: also called third IL-33 antagonist; human IL-33 Trap
Broadly, the IC50 is the concentration at which inhibition is half-maximal. By Kd is commonly meant the concentration at which binding is half-saturated. Usually koff stands for the first-order rate constant of dissociation. A word on the kon: it is the rate constant with which the complex forms. B1 came in with an IC50 in assay [1] of 0.00634 nM. For the same molecule, in assay [2], the “IC50 (M), inhibition of 5 pM human IL-33 activation of HEK293/hST2/NFkB-luciferase cells” value was 1.3e-12 M and the “IC50 (M), inhibition of 20 pM human IL-33 activation of HEK293/hST2/NFkB-luciferase cells” value was 1.3e-11 M. In addition, in assay [3], the “IC50 (M), inhibition of 3 pM monkey IL-33 activation of HEK293/hST2/NFkB-luciferase cells” value came out at 4.7e-11 M and the “IC50 (M), inhibition of 5 pM monkey IL-33 activation of HEK293/hST2/NFkB-luciferase cells” value was 1.3e-12 M. For the same molecule, in assay [4], the “60 nM Mouse IL-33 Bound (RU)” value was 21 RU, the Kd amounted to 0.0933 nM, the koff was 0.000317 s⁻¹ and the kon was 3.39e+06 M⁻¹ s⁻¹. In addition, the t1/2 in assay [4] came to 0.6 h. Further, in assay [5], the “60 nM Mouse IL-33 Bound (RU)” value was determined as 22 RU, binding was put at a Kd of 0.0192 nM, the koff was 8.97e-05 s⁻¹ and the kon worked out at 4.67e+06 M⁻¹ s⁻¹. In addition, the t1/2 in assay [5] is 2.15 h.
